These results are taken from paper PMC3433786 (The EMBO Journal, 2012).

Series [1] concerns the molecule itself. Briefly: AUC.
Series [2] deals with the molecule itself. Nature of the series: SEC-MALS. (Size exclusion chromatography separates by hydrodynamic size, large species first.)
Series [3] deals with the molecule itself. Nature of the series: crystal structure.

B1: mouse stomatin domain (amino acids 86–213), stomatin^86–213 (domain or fragment, UniProt P54116 86-213, looked up)
chain: PSTDSLIKVDMRTISFDIPPQEVLTKDSVTISVDGVVYYRVQNATLAVANITNADSATRLLAQTTLRNALGTKNLSQILSDREEIAHHMQSTLDDATDDWGIKVERVEIKDVKLPVQLQRAMAAEAEA
The term Kd denotes the constant that tells how readily two partners part at equilibrium. Lower therefore signals higher affinity. For B1, the dissociation constant (Kd) in series [1] worked out at 37 µM.

B2: stomatin^86–213 L109D,L145D (domain or fragment, mouse, UniProt P54116 86-213, looked up)
chain: PSTDSLIKVDMRTISFDIPPQEVDTKDSVTISVDGVVYYRVQNATLAVANITNADSATRDLAQTTLRNALGTKNLSQILSDREEIAHHMQSTLDDATDDWGIKVERVEIKDVKLPVQLQRAMAAEAEA
For B2, the binding result in series [2] was “binds”.

B3: stomatin^86–213 T182W (domain or fragment, mouse, UniProt P54116 86-213, looked up)
chain: PSTDSLIKVDMRTISFDIPPQEVLTKDSVTISVDGVVYYRVQNATLAVANITNADSATRLLAQTTLRNALGTKNLSQILSDREEIAHHMQSTLDDAWDDWGIKVERVEIKDVKLPVQLQRAMAAEAEA
Regarding B3, the binding result in series [2] was “binds”.

B4: stomatin^86–213 LI91,92AA (domain or fragment, mouse, UniProt P54116 86-213, looked up)
chain: PSTDSAAKVDMRTISFDIPPQEVLTKDSVTISVDGVVYYRVQNATLAVANITNADSATRLLAQTTLRNALGTKNLSQILSDREEIAHHMQSTLDDATDDWGIKVERVEIKDVKLPVQLQRAMAAEAEA
In the case of B4, the binding result in series [3] is “binds”.

B5: stomatin^86–213 R97D, L109D, L145D (domain or fragment, mouse, UniProt P54116 86-213, looked up)
chain: PSTDSLIKVDMDTISFDIPPQEVDTKDSVTISVDGVVYYRVQNATLAVANITNADSATRDLAQTTLRNALGTKNLSQILSDREEIAHHMQSTLDDATDDWGIKVERVEIKDVKLPVQLQRAMAAEAEA
As to B5, the binding result in series [2] is on record as “binds”.
